For test [1], the target named is SARS-CoV-2 main protease with the mutations E290A and R298A (MPro^M) (SARS-CoV-2). Kind of test: AUC; sedimentation velocity, 50,000 rpm, 25 °C, buffer A; MPro^M at 18-90 µM, without inhibitor.
Test [2] shares this target. As to the kind of experiment: enzyme kinetics (calculated from rate constants); dimer to monomers (K1); MPro^M, calculated from the slope of rate against [Mo]^2 (Eq. 3) and from k3/Ks found with GC376 (Eq. 6); buffer B, 28 °C.
Test [3] shares this target. Kind of test: AUC; sedimentation velocity, 50,000 rpm, 25 °C, buffer B with 0.1% DMSO; MPro^M at 6-7 µM with GC376 at 1-50 µM.
Test [4] shares this target. As to the kind of experiment: not stated; 10 µM MPro^M with a 10-fold molar excess of GC376 (100 µM); told with the CD spectra.

Some results are limits rather than exact numbers.

As for “SARS-CoV-2 main protease with the mutations E290A and R298A (MPro^M) (enzyme)”, the Kd (commonly the constant that tells how readily two partners part at equilibrium) in test [1] was > 0.09 mM. In test [2], the Kd is 6.6 mM. In test [3], the free monomer concentration [M] at [Mo] 10 µM and GC376 10 µM was 5e-06 M; the stoichiometry N (in general, the number of molecules, sites or subunits per partner or assembly) turned out to be 2. Further, the percent dimeric with 10-fold molar excess of GC376 in test [4] came out at 90%.

Source of the values: PMC8888643.
